Sequences and labels used below:
B1: glmS ribozyme (parent)
chain: AUAAAAGCGCCAGAACUACAGAAAUGUAGUUGACGAGGAGGAGGUUUAUCGAAUUUUCGGCGGAUGCCUCCAAA

± gives the standard error. For some of these results: Variants at the floor of the assay were thinned out. Where only a bound is given, the exact number is not on record here.

Conditions in all cases: with glucosamine-6-phosphate
The variants in data set [1] derive from B1. Nature of the data set: kcat; higher = faster cleavage; RNA array. In a few lines:
(§1)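 Barcoded ribozyme variants were transcribed in situ on sequenced MiSeq chips by E. coli RNA polymerase. At 37 °C, a hybridised Cy3 probe tracked them while glucosamine-6-phosphate (40 μM to 10 mM) in HEPES/KCl/Mg(OAc)2 buffer flowed in and tiles were imaged over ~14 h. Per-tile medians of signals normalised to baseline and to non-cleaving reference variants were fit to one- or two-exponential decays, giving kobs. kcat and KM came from weighted Michaelis–Menten fits across concentrations.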

Variants of B1 are the subject of data set [2]. Nature of the data set: KM; higher = weaker cofactor use; RNA array. In a few lines: as §1
Data set [3] covers variants of B1. Nature of the data set: self-cleavage kobs at 40 uM GlcN6P; higher = faster cleavage; RNA array. In a few lines:
as §1

In data set [4] the parent is B1. Nature of the data set: self-cleavage kobs at 640 uM GlcN6P; higher = faster cleavage; RNA array. In short, it runs like this:
as §1

The variants in data set [5] derive from B1. Nature of the data set: self-cleavage kobs at 160 uM GlcN6P; higher = faster cleavage; RNA array. In short, it runs like this: as §1
In data set [6] the parent is B1. Nature of the data set: self-cleavage kobs at 2500 uM GlcN6P; higher = faster cleavage; RNA array. In a few lines: as §1
The variants in data set [7] derive from B1. Nature of the data set: self-cleavage kobs at 10000 uM GlcN6P; higher = faster cleavage; RNA array. In a few lines: as §1

The values below come from the supplement of paper PMC7125110.

On to AUAAAAGCGCCAGAACUACAGAAAUGUAGUUGACGAGGAGGAGGUUUAUCGACUUUUGGGCGGAUGCCUCCAAA, for which, in the data set with glucosamine-6-phosphate [1], the kcat was 1.56e-05 ± 5.2e-06 s⁻¹.

AUAAAAGCGCCAGAACUACAGAAAUGUAGUUGACGAGGAGGAGGUUUAUCGAAUAUUCGGUGGAUGCCUCCAAA: the kcat with glucosamine-6-phosphate [1] was 1.43e-05 ± 1.1e-06 s⁻¹. Further, the KM with glucosamine-6-phosphate [2] was 1930 ± 520 µM.

As to AUAAAAGCGGCAGAACUACAGAAAUGUAGUUGACGAGGAGGAGGUUUAACGAAUUUUCGGCGGAUGCCUCCAAA, the kcat with glucosamine-6-phosphate [1] was 1.12e-05 ± 2.4e-06 s⁻¹. Also, the “self-cleavage kobs at 40 uM GlcN6P” value in the data set with glucosamine-6-phosphate [3] was less than 1e-05 s⁻¹. Also, the “self-cleavage kobs at 640 uM GlcN6P” value with glucosamine-6-phosphate [4] was less than 1e-05 s⁻¹.

For AUAAAAGCGCCAGAACUACAGAAAUGUAGUUGACGAUGAGGAGGUUUAUUGAAUUUUCGGCGGAUGCCUUCAAA, the kcat in the data set with glucosamine-6-phosphate [1] was found to be 3.99e-05 ± 1.4e-05 s⁻¹.

As to AUAAAAGCGCCAGAUCUACAGAAAUGUAGUUGACGAGGAGGAGGUUUAUCGAAUGUUCGGCGGAUGCCUCCAAA, the kcat with glucosamine-6-phosphate [1] turned out to be 0.00423 ± 0.0019 s⁻¹. Moreover, the “self-cleavage kobs at 40 uM GlcN6P” value with glucosamine-6-phosphate [3] was 0.000109 ± 1.3e-05 s⁻¹. Moreover, the “self-cleavage kobs at 160 uM GlcN6P” value with glucosamine-6-phosphate [5] is 0.000152 ± 4.6e-05 s⁻¹. In the data set with glucosamine-6-phosphate [4], the “self-cleavage kobs at 640 uM GlcN6P” value was 0.00134 ± 0.00029 s⁻¹. In the data set with glucosamine-6-phosphate [6], the “self-cleavage kobs at 2500 uM GlcN6P” value is 0.00204 ± 0.00063 s⁻¹. Further, in the data set with glucosamine-6-phosphate [7], the “self-cleavage kobs at 10000 uM GlcN6P” value came out at 0.00356 ± 0.00054 s⁻¹.

On to AUAAAAGCGCCAGAACUACAGAAAUGUAGUUGACGAGGAGGAGGUUUAUCGGAUUUUCGGCGGAUGCCUGCAAA, for which the kcat in the data set with glucosamine-6-phosphate [1] worked out at 6.89e-05 ± 3.6e-06 s⁻¹. Further, the KM with glucosamine-6-phosphate [2] was found to be 65.2 ± 26 µM. The “self-cleavage kobs at 160 uM GlcN6P” value with glucosamine-6-phosphate [5] came out at 5.53e-05 ± 1e-05 s⁻¹. Moreover, the “self-cleavage kobs at 640 uM GlcN6P” value with glucosamine-6-phosphate [4] was 5.76e-05 ± 1.2e-05 s⁻¹. Besides, the “self-cleavage kobs at 2500 uM GlcN6P” value with glucosamine-6-phosphate [6] came to 6.23e-05 ± 7.9e-06 s⁻¹. In the data set with glucosamine-6-phosphate [7], the “self-cleavage kobs at 10000 uM GlcN6P” value stood at 7.2e-05 ± 6.7e-06 s⁻¹.

For the variant AUAAAAGCGCUAGAACUACAGAAAUGUAGUUGACGAGGAGGAGGUUUAUCGAAUUUUCGGCGGAUACCUCCAAA, the kcat with glucosamine-6-phosphate [1] worked out at 0.000908 ± 0.00021 s⁻¹. Besides, in the data set with glucosamine-6-phosphate [2], the KM was determined as 2510 ± 1100 µM. Further, in the data set with glucosamine-6-phosphate [4], the “self-cleavage kobs at 640 uM GlcN6P” value was 0.000205 ± 6e-05 s⁻¹. In addition, the “self-cleavage kobs at 2500 uM GlcN6P” value with glucosamine-6-phosphate [6] amounted to 0.000661 ± 0.00015 s⁻¹. In the data set with glucosamine-6-phosphate [7], the “self-cleavage kobs at 10000 uM GlcN6P” value was 0.000673 ± 0.00012 s⁻¹.

For the variant AUAAAAGCGCCAGAACUACAGAAAUGUAGUUGACGAGGUGGAGGUUUAUCGAAUUUUCGGCGGAUGCCUCAAAA, the kcat with glucosamine-6-phosphate [1] turned out to be 0.00326 ± 0.00043 s⁻¹. Moreover, the KM with glucosamine-6-phosphate [2] was determined as 1880 ± 370 µM. Further, the “self-cleavage kobs at 40 uM GlcN6P” value in the data set with glucosamine-6-phosphate [3] came to 6.47e-05 ± 9.1e-06 s⁻¹. Moreover, in the data set with glucosamine-6-phosphate [5], the “self-cleavage kobs at 160 uM GlcN6P” value turned out to be 0.000353 ± 6.3e-05 s⁻¹. Further, the “self-cleavage kobs at 640 uM GlcN6P” value in the data set with glucosamine-6-phosphate [4] stood at 0.000728 ± 0.00015 s⁻¹. Moreover, in the data set with glucosamine-6-phosphate [6], the “self-cleavage kobs at 2500 uM GlcN6P” value was 0.00175 ± 0.00039 s⁻¹. Besides, the “self-cleavage kobs at 10000 uM GlcN6P” value with glucosamine-6-phosphate [7] is 0.0028 ± 0.00031 s⁻¹.

Take AUAAACGCGCCAGAACUACAGAAAUGUAGUUGACGAGGAGGAGGAUUAUCGAAUUUUCGGCGGAUGCCUCCAAA: the kcat with glucosamine-6-phosphate [1] was 0.000229 ± 1.7e-05 s⁻¹. In addition, in the data set with glucosamine-6-phosphate [2], the KM came to 3720 ± 750 µM. Moreover, the “self-cleavage kobs at 40 uM GlcN6P” value in the data set with glucosamine-6-phosphate [3] is less than 1e-05 s⁻¹. For the same variant, the “self-cleavage kobs at 640 uM GlcN6P” value with glucosamine-6-phosphate [4] stood at 3.95e-05 ± 1.9e-05 s⁻¹. In addition, the “self-cleavage kobs at 2500 uM GlcN6P” value in the data set with glucosamine-6-phosphate [6] turned out to be 8.34e-05 ± 2.8e-05 s⁻¹. In addition, the “self-cleavage kobs at 10000 uM GlcN6P” value with glucosamine-6-phosphate [7] is 0.000168 ± 2.1e-05 s⁻¹.
